Numbering of substitutions follows the chain as printed. One block for each binder: values may come before it.
What was measured:
[1] = molecular target: T1, ST2 on the effector cells (KU812, KU812/NF-κB-1#, HUVEC, HMC-1) (human, UniProt Q01638 19-556); test: cell-based or functional assay
T1 sequence (looked up): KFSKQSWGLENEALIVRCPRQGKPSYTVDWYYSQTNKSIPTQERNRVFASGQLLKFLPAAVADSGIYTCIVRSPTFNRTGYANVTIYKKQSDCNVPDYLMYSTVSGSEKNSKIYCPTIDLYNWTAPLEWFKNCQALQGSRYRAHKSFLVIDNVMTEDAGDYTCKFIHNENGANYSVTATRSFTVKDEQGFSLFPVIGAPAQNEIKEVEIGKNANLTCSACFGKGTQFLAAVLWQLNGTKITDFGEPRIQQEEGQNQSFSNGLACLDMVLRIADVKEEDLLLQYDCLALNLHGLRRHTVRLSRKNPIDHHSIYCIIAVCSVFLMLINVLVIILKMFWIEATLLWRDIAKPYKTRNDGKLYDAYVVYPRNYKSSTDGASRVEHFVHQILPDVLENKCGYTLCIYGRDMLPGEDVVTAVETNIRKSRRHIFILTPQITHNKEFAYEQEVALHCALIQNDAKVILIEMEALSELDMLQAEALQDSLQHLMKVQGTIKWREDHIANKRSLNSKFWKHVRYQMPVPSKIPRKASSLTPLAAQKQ

[2] = molecular target: T1, ST2 on the effector cells (KU812, …); test: cell-based or functional assay; remark: listed apart in the source
[3] = molecular target: T2, Human ST2-his (human, UniProt Q01638-2 19-328, limits assumed); test: SPR Biacore X100, ratio of kd at pH 5.5 to kd at pH 7.4
T2 construct: Expressed in CHO-K1; The printed range starts at Met1; also called human ST2 fused with a 6-histidine tag at the C-terminus
T2 sequence: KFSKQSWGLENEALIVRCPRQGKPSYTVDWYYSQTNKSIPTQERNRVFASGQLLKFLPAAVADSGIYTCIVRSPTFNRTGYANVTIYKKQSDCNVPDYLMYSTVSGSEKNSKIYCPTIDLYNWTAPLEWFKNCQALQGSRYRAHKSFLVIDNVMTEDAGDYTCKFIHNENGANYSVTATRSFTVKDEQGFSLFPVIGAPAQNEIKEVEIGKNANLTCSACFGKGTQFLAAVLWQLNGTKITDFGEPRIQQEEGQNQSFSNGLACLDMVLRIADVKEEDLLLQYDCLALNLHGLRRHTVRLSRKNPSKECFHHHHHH
Method: (§1) The experiment on the interaction between the anti-human ST2 antibodies and human ST2-his was performed using Biacore X100.
(§2) Each anti-human ST2 antibody was diluted to 2 µg/mL and captured on the surface of a protein A chip for a capture time of 60 s. Following the antibody capture, a solution of human ST2-his (2-fold gradient dilution from a starting concentration of 20 nM, to obtain 6 concentrations in total) was injected. Association was monitored for 180 s and dissociation was monitored for 700 s, and the sensor surface was regenerated by injecting a solution of glycine at pH 2.0. Kinetic data were analyzed using a simple 1:1 binding model.

[4] = molecular target: T1, ST2 on the effector cells (KU812, …); test: cell-based or functional assay; remark: listed apart in the source
[5] = molecular target: Human ST2-fc (human) (UniProt Q01638); test: competition ELISA, coated ST2-fc, competitor IL33-his
[6] = molecular target: T1, ST2 on the effector cells (KU812, …); test: cell-based or functional assay; remark: listed apart in the source
[7] = molecular target: T1, ST2 on the effector cells (KU812, …); test: cell-based or functional assay; remark: listed apart in the source
[8] = molecular target: T2, Human ST2-his; test: SPR Biacore X100, antibody captured on protein A chip, human ST2-his injected, dissociation at pH 5.5
Method: as §1, §2

[9] = molecular target: T1, ST2 on the effector cells (KU812, …); test: cell-based or functional assay; remark: listed apart in the source
[10] = molecular target: T2, Human ST2-his; test: SPR Biacore X100, antibody captured on protein A chip, human ST2-his injected, pH 7.4
In short: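 Antibody (2 µg/mL) captured 60 s on protein A; human ST2-his injected at six 2-fold dilutions from 20 nM, association 180 s, dissociation 700 s. Kinetics fitted to 1:1 binding model; glycine pH 2.0 regeneration.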

[11] = molecular target: Human ST2-fc (human) (UniProt Q01638); test: competition ELISA: human ST2-fc coated, antibody titrated in a mixture with human IL33-his (blocked ligand), bound IL33-his detected with an anti-His secondary antibody, OD450-OD650 [continued), 9-4]

IC50, inhibition of HMC-1 IL8 production promoted by IL33 [1]: 0.0472 µg/mL
Maximum inhibition rate, HMC-1 IL8 production by IL33 [1]: 86.8%
Relative activity, HMC-1 IL8 production by IL33 [1]: 213%
IC50, inhibition of activation of KU812-NF-κB reporter gene by IL33 [2]: 0.0394 µg/mL
Maximum inhibition rate, KU812-NF-κB reporter gene [2]: 86.1%
Relative activity compared with CNTO7160, KU812-NF-κB reporter gene [2]: 508%
kd ratio of pH 5.5/pH 7.4 [3]: 1.57
IC50, inhibition of KU812-IL5 production promoted by IL-33 (human IL33-his) [4]: 0.00815 µg/mL
Maximum inhibition rate, KU812-IL5 production by IL-33 [4]: 97%
Relative activity compared with CNTO7160, KU812-IL5 production by IL-33 [4]: 742%
IC50 [5]: 0.553 µg/mL
Maximum inhibition rate [5]: 93.7%
Relative activity compared with CNTO7160 [5]: 228%
IC50, inhibition of KU812-IL5 production promoted by reduced IL33 [6]: 0.265 µg/mL
Maximum inhibition rate, KU812-IL5 production by reduced IL33 [6]: 86.9%
Relative activity, KU812-IL5 production by reduced IL33 [6]: 554%
IC50, inhibition of HUVEC-IL6 production promoted by IL33 [7]: 1.64 µg/mL
Maximum inhibition rate, HUVEC-IL6 production by IL33 [7]: 93%
Relative activity, HUVEC-IL6 production by IL33 [7]: 167%
Kd [8]: 0.122 nM
koff [8]: 0.000232 s⁻¹
kon [8]: 1.9e+06 M⁻¹ s⁻¹
IC50, inhibition of KU812-IL5 production promoted by oxidized IL33 [9]: 0.0136 µg/mL
Maximum inhibition rate, KU812-IL5 production by oxidized IL33 [9]: 101%
Relative activity, KU812-IL5 production by oxidized IL33 [9]: 162%
Kd [10]: 0.097 nM
koff [10]: 0.000148 s⁻¹
kon [10]: 1.53e+06 M⁻¹ s⁻¹
B1: 5888-153-H3L1 (antibody, human IgG4 S228P, kappa, V domains shown)
VH: QVQLVQSGAEVKKPGASVKVSCKASGYTFTDYELHWVRQAPGQGLEWMGTIDPETGDTVYNQKFKARVTMTADKSTSTAYMELSSLRSEDTAVYYCTRAFYNDYDDAFAYWGQGTLVTVSS
VL: EIVMTQSPATLSLSPGERATLSCSVSSSVSYMHWYQQKPGQAPRRLIYDTSKLASGIPARFSGSGSGTDYTLTISSLEPEDAAVYYCQQWNSSPLTFGGGTKVEIKR
notes: Humanized antibody

IC50 (read off the curve) [11]: 2 µg/mL
B2: 5888-153-H2L1 (antibody, human IgG4 S228P, kappa, V domains shown)
VH: B1 VH with D106E, A107G
VL: B1 VL

IC50, inhibition of HMC-1 IL8 production promoted by IL33 [1]: 0.0359 µg/mL
Maximum inhibition rate, HMC-1 IL8 production by IL33 [1]: 87.2%
Relative activity, HMC-1 IL8 production by IL33 [1]: 280%
IC50, inhibition of activation of KU812-NF-κB reporter gene by IL33 [2]: 0.0438 µg/mL
Maximum inhibition rate, KU812-NF-κB reporter gene [2]: 88.2%
Relative activity compared with CNTO7160, KU812-NF-κB reporter gene [2]: 458%
kd ratio of pH 5.5/pH 7.4 [3]: 0.86
IC50, inhibition of KU812-IL5 production promoted by IL-33 (human IL33-his) [4]: 0.0303 µg/mL
Maximum inhibition rate, KU812-IL5 production by IL-33 [4]: 99.1%
Relative activity compared with CNTO7160, KU812-IL5 production by IL-33 [4]: 201%
IC50 [5]: 0.3 µg/mL
Maximum inhibition rate [5]: 94.3%
Relative activity compared with CNTO7160 [5]: 380%
IC50, inhibition of KU812-IL5 production promoted by reduced IL33 [6]: 0.389 µg/mL
Maximum inhibition rate, KU812-IL5 production by reduced IL33 [6]: 83.6%
Relative activity, KU812-IL5 production by reduced IL33 [6]: 377%
IC50, inhibition of HUVEC-IL6 production promoted by IL33 [7]: 0.844 µg/mL
Maximum inhibition rate, HUVEC-IL6 production by IL33 [7]: 93%
Relative activity, HUVEC-IL6 production by IL33 [7]: 323%
Kd [8]: 0.0706 nM
koff [8]: 0.000152 s⁻¹
kon [8]: 2.15e+06 M⁻¹ s⁻¹
IC50, inhibition of KU812-IL5 production promoted by oxidized IL33 [9]: 0.0147 µg/mL
Maximum inhibition rate, KU812-IL5 production by oxidized IL33 [9]: 101%
Relative activity, KU812-IL5 production by oxidized IL33 [9]: 150%
Kd [10]: 0.0997 nM
koff [10]: 0.000176 s⁻¹
kon [10]: 1.76e+06 M⁻¹ s⁻¹
B3: 5888-153-H0L1 (antibody, human IgG4 S228P, kappa, V domains shown)
VH: B1 VH with A72R, K74T, A79V, T97A, A107G
VL: B1 VL
notes: Humanized antibody

IC50, inhibition of HMC-1 IL8 production promoted by IL33 [1]: 0.0944 µg/mL
Maximum inhibition rate, HMC-1 IL8 production by IL33 [1]: 83.3%
Relative activity, HMC-1 IL8 production by IL33 [1]: 107%
IC50, inhibition of activation of KU812-NF-κB reporter gene by IL33 [2]: 0.0553 µg/mL
Maximum inhibition rate, KU812-NF-κB reporter gene [2]: 88.1%
Relative activity compared with CNTO7160, KU812-NF-κB reporter gene [2]: 362%
kd ratio of pH 5.5/pH 7.4 [3]: 1.43
IC50, inhibition of KU812-IL5 production promoted by IL-33 (human IL33-his) [4]: 0.0755 µg/mL
Maximum inhibition rate, KU812-IL5 production by IL-33 [4]: 94.2%
Relative activity compared with CNTO7160, KU812-IL5 production by IL-33 [4]: 142%
IC50 [5]: 0.828 µg/mL
Maximum inhibition rate [5]: 93.7%
Relative activity compared with CNTO7160 [5]: 152%
IC50, inhibition of KU812-IL5 production promoted by reduced IL33 [6]: 0.522 µg/mL
Maximum inhibition rate, KU812-IL5 production by reduced IL33 [6]: 87.2%
Relative activity, KU812-IL5 production by reduced IL33 [6]: 281%
IC50, inhibition of HUVEC-IL6 production promoted by IL33 [7]: 3.69 µg/mL
Maximum inhibition rate, HUVEC-IL6 production by IL33 [7]: 91.8%
Relative activity, HUVEC-IL6 production by IL33 [7]: 73.9%
Kd [8]: 0.131 nM
koff [8]: 0.000245 s⁻¹
kon [8]: 1.87e+06 M⁻¹ s⁻¹
IC50, inhibition of KU812-IL5 production promoted by oxidized IL33 [9]: 0.0173 µg/mL
Maximum inhibition rate, KU812-IL5 production by oxidized IL33 [9]: 101%
Relative activity, KU812-IL5 production by oxidized IL33 [9]: 127%
Kd [10]: 0.104 nM
koff [10]: 0.000171 s⁻¹
kon [10]: 1.65e+06 M⁻¹ s⁻¹
B4: 5888-153-H3L2 (antibody, human IgG4 S228P, kappa, V domains shown)
VH: B1 VH
VL: B1 VL with S92T
notes: Humanized antibody
